The record followed here is IntAct's records for PubMed 11494128.

First the molecules themselves.
B1: Ephrin type-B receptor 2 (Gallus gallus (Chicken)), P28693 (parent)
chain: MGPLWFCCLPLALLPLLAAVEETLMDSTTATAELGWMVHPPSGWEEVSGYDENMNTIRTYQVCNVFESSQNNWLRTKYIRRRGAHRIHVEMKFSVRDCSSIPNVPGSCKETFNLYYYESDFDSATKTFPNWMENPWMKVDTIAADESFSQVDLGGRVMKINTEVRSFGPVSKNGFYLAFQDYGGCMSLIAVRVFYRKCPRVIQNGAVFQETLSGAESTSLVAARGTCISNAEEVDVPIKLYCNGDGEWLVPIGRCMCRPGYESVENGTVCRGCPSGTFKASQGDEGCVHCPINSRTTSEGATNCVCRNGYYRADADPVDMPCTTIPSAPQAVISSVNETSLMLEWTPPRDSGGREDLVYNIICKSCGSGRGACTRCGDNVQFAPRQLGLTEPRIYISDLLAHTQYTFEIQAVNGVTDQSPFSPQFASVNITTNQAAPSAVSIMHQVSRTVDSITLSWSQPDQPNGVILDYELQYYEKNLSELNSTAVKSPTNTVTVQNLKAGTIYVFQVRARTVAGYGRYSGKMYFQTMTEAEYQTSVQEKLPLIIGSSAAGLVFLIAVVVIIIVCNRRRGFERADSEYTDKLQHYTSGHSTYRGPPPGLGVRLFVMTPGMKIYIDPFTYEDPNEAVREFAKEIDISCVKIEQVIGAGEFGEVCSGHLKLPGKREIFVAIKTLKSGYTEKQRRDFLSEASIMGQFDHPNVIHLEGVVTKSSPVMIITEFMENGSLDSFLRQNDGQFTVIQLVGMLRGIAAGMKYLADMNYVHRDLAARNILVNSNLVCKVSDFGLSRFLEDDTSDPTYTSALGGKIPIRWTAPEAIQYRKFTSASDVWSYGIVMWEVMSYGERPYWDMTNQDVINAIEQDYRLPPPMDCPNALHQLMLDCWQKDRNHRPKFGQIVNTLDKMIRNPNSLKAMAPLSSGVNLPLLDRTIPDYTSFNTVDEWLDAIKMSQYKESFASAGFTTFDIVSQMTVEDILRVGVTLAGHQKKILNSIQVMRAQMNQIQSVEV

Variants of B1 are the subject of the first test. The conditions noted are these: with abl1_mouse Abl1, P00520.
Sequence of abl1_mouse Abl1, P00520 (P00520 whole entry): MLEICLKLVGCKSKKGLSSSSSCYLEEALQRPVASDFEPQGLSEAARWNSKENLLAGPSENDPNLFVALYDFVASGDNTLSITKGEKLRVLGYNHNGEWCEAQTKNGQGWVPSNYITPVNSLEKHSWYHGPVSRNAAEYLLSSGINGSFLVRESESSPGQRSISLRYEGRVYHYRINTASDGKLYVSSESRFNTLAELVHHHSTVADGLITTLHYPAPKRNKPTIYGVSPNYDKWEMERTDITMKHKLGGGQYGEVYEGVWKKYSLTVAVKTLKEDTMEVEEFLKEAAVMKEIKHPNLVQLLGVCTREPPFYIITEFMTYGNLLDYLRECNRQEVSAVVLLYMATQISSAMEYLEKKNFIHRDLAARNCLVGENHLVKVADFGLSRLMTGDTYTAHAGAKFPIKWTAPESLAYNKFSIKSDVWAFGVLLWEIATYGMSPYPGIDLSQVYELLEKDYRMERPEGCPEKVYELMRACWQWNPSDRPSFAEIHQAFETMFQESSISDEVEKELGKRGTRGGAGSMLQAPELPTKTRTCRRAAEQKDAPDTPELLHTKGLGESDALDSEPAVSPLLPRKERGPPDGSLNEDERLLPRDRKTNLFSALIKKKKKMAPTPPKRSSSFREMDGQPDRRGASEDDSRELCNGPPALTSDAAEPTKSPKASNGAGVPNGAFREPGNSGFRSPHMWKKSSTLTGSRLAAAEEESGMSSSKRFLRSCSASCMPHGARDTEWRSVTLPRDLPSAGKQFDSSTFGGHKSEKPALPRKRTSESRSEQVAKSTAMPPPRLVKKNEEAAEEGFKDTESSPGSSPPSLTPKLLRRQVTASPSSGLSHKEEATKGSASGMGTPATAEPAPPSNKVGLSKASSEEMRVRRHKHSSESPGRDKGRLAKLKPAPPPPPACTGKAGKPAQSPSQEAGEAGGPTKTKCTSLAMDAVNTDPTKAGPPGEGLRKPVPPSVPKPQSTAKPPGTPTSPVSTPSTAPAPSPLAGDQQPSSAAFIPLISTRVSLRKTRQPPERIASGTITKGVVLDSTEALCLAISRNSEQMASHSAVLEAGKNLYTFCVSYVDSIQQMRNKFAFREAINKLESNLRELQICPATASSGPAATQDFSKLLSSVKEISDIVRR
On to Y620E, for which the “effect of a mutation on the interaction” value is recorded as “decreasing interaction strength”.

Turning to Y614E, the “effect of a mutation on the interaction” value is listed as “decreasing interaction strength”. Consider Y614E;Y620E, for which the “effect of a mutation on the interaction” value is recorded as “disrupting interaction strength”.

The variants in the next test derive from B1. As to conditions: with abl1_mouse Abl1, P00520. This is another data set of the same source.
Regarding Y614E;Y620E, the “effect of a mutation on the interaction” value was “decreasing interaction strength”.
